{"source": "paper PMC10583557", "about": "(Molecular Biology and Evolution, 2023)", "molecules": {"B1": {"name": "Cyanobacterium aponinum lactate dehydrogenase, wild type (enzyme)", "chain": "MFEKILLSNPSAENPSSLRPRKGIIIGLGQVGLACAYSMLIQDCFDELVLQDIASDKLEGEVMDFSHGMPFIPPTDIKAGTIANEGRNADIVIITAGVAQKEGESRLSLLERNIAIYKKILADVVKYCPEAIILVVTNPVDIMTYATLKITGFPSSRIIGSGTVLDTARFRTLLAKEMDIDPRSVHAYIIGEHGDSEVPVWSTANVGGMKLVPNTWADLPEDEKATLSGIFQKVQNAAYDIIKLKGYTSYAIGLATTDIVKAILNSQERILTVSGLMTGMYGIEDVCLSIPRVVSERGIIKTVNLTLSEDEEKLLQQSAKMLKEVFDKINY"}, "B2": {"name": "ΔN-ter C. apon LDH (N-terminal sequence … deleted) (domain or fragment, Cyanobacterium aponinum, UniProt K9Z684 21-331, looked up)", "chain": "RKGIIIGLGQVGLACAYSMLIQDCFDELVLQDIASDKLEGEVMDFSHGMPFIPPTDIKAGTIANEGRNADIVIITAGVAQKEGESRLSLLERNIAIYKKILADVVKYCPEAIILVVTNPVDIMTYATLKITGFPSSRIIGSGTVLDTARFRTLLAKEMDIDPRSVHAYIIGEHGDSEVPVWSTANVGGMKLVPNTWADLPEDEKATLSGIFQKVQNAAYDIIKLKGYTSYAIGLATTDIVKAILNSQERILTVSGLMTGMYGIEDVCLSIPRVVSERGIIKTVNLTLSEDEEKLLQQSAKMLKEVFDKINY"}}, "key": {"C. apon LDH": {"target": "T1, C. apon LDH (Cyanobacterium aponinum, UniProt K9Z684)", "T1 sequence (K9Z684 1-331)": "B1 chain", "assay": "X-ray crystal structure of complex", "assay_type": "binding", "conditions": "2 mM each"}, "[1]": {"target": "Y190W C. apon LDH (Cyanobacterium aponinum)", "assay": "AUC"}, "SEC-MALS": {"target": "the molecule itself", "assay": "SEC-MALS"}}, "data": [{"molecule": "NC(=O)C1=CN([C@@H]2O[C@H](COP(=O)(O)OP(=O)(O)OC[C@H]3O[C@@H](n4cnc5c(N)ncnc54)[C@H](O)[C@@H]3O)[C@@H](O)[C@H]2O)C=CC1", "note": "[NADH]", "values": [{"measurement": "X-ray crystal structure of complex", "setting": "C. apon LDH; cofactor site, with oxamate and FBP", "value": "active sites of each monomer occupied with a NADH and an oxamate molecule"}]}, {"molecule": "Y190W C. apon LDH (enzyme)", "values": [{"measurement": "stoichiometry N", "setting": "[1]", "value": 4}]}, {"molecule": "NC(=O)C(=O)O", "note": "[oxamate]", "values": [{"measurement": "X-ray crystal structure of complex", "setting": "C. apon LDH; active site, substrate analogue, with NADH and FBP", "value": "active sites of each monomer occupied with a NADH and an oxamate molecule"}]}, {"molecule": "B1", "values": [{"measurement": "stoichiometry N", "setting": "SEC-MALS", "value": 4}]}, {"molecule": "B2", "values": [{"measurement": "stoichiometry N", "setting": "SEC-MALS", "value": 2}]}]}
